This note sets out measurements from publication doi:10.1101/2023.08.28.555081 (bioRxiv, 2023).

Positions count from the first letter of the chain named.

This series concerns the molecule itself. Put plainly: negative-stain electron microscopy.

B1: Light-Dependent Protochlorophyllide Oxidoreductase, PORB isoform of A. thaliana, wild type (enzyme)
chain: QTAATSSPTVTKSVDGKKTLRKGNVVVTGASSGLGLATAKALAETGKWNVIMACRDFLKAERAAKSVGMPKDSYTVMHLDLASLDSVRQFVDNFRRTETPLDVLVCNAAVYFPTAKEPTYSAEGFELSVATNHLGHFLLARLLLDDLKKSDYPSKRLIIVGSITGNTNTLAGNVPPKANLGDLRGLAGGLNGLNSSAMIDGGDFDGAKAYKDSKVCNMLTMQEFHRRFHEETGVTFASLYPGCIASTGLFREHIPLFRALFPPFQKYITKGYVSETESGKRLAQVVSDPSLTKSGVYWSWNNASASFENQLSEEASDVEKARKVWEISEKLVGLA
Regarding B1, the binding result is listed as “binds”.

B2: Light-Dependent Protochlorophyllide Oxidoreductase (AtPORB) Y177F_H319A double mutant (enzyme, A. thaliana)
chain: B1 chain with Y111F, H253A
As to B2, the binding result is reported as “binds”.
